Assay results as given in PMC4498786, “Dimerization-Induced Allosteric Changes of the Oxyanion-Hole Loop Activate the Pseudorabies Virus Assemblin pUL26N, a Herpesvirus Serine Protease” (PLoS Pathogens, 2015).

B1: pseudorabies virus (PrV) assemblin pUL26N, protease domain of pUL26, residues 1-224 (enzyme)
chain: MGPVYVSGYLALYDRDGGELALTREIVAAALPPAGPLPINIDHRPRCDIGAVLAVVDDDRGPFFLGVVNCPQLGAVLARAVGPDFFGDMRLSDEERLLYLLSNYLPSASLSSRRLAPGEAPDETLFAHVALCVIGRRVGTIVVYDASPEAAVAPFRQLSARARSELLARAAESPDRERVWHMSEEALTRALLSTAVNNMLLRDRWELVAARRREAGVRGHTYLQ
notes: also called PrV protease; VP24
B2: diisopropyl fluorophosphate-inhibited pseudorabies virus (PrV) assemblin pUL26N, residues 1-224 (enzyme)
chain: B1 chain

What was measured:
[1] = biological target: the molecule itself; test: small-angle X-ray scattering (SAXS)
crystal structure = biological target: the molecule itself; test: crystal structure

Protein | stoichiometry N [1] | stoichiometry N (crystal structure)
B1 | 2 | –
B2 | – | 2
